Among the data in the RNAGym collection of RNA variant scans (doi:10.7554/elife.80360) are self-cleavage values, retold here.

B1: Twister Ribozyme (parent)
chain: AACACUGCCAAUGCCGGUCCCAAGCCCGGAUAAAAGUGGAGGGGGCGG

Variants of B1 are the subject of the data set. As to the kind of experiment: self-cleavage, relative activity (ratio to wild type); higher = more cleavage; co-transcriptional.
Take C46U G47U: the self-cleavage came out at 1.02.

Regarding C46U G48C, the self-cleavage was 1.1.

In the case of C46G G48C, the self-cleavage is 1.55.

Consider C46G G48U, for which the self-cleavage was 1.52.

Regarding G47C G48C, the self-cleavage is 0.799.

With G47C G48U, the self-cleavage came out at 0.4.

On to G47A G48U, for which the self-cleavage came to 1.47.

Turning to G47U G48C, the self-cleavage was found to be 1.36.
